Data taken from patent US20090068102A1, “TREATING STROKE” (BIOGEN IDEC MA INC., priority 2005, published 2009).

Key:
NF-κB = NF-κB luciferase reporter (pNF-κB-Luc) in transfected cortical neurons; format: cell-based, mouse
Description: (§1) Cell culture and transient transfection. Cortical neurons were prepared from embryonic day 16 (E16) mice. For transfection, cells were plated on 24-well plates precoated with poly-D-lysine (50 ng/ml) at a density of 200,000 cells per well. For RNA preparation, 2 million cells per well were plated on six-well plates. Cells were incubated in NEUROBASAL™ medium (Invitrogen) supplemented with B27 (Invitrogen), L-glutamine (0.5 mM), penicillin (100 IU/ml), and streptomycin (100 μg/ml). In these cultures, >95% of cells were positive for the neuronal marker NeuN. After 10 days in vitro, cells were transfected using LIPOFECTAMINE™ 2000 (Invitrogen) and 1 ng per well of the NF-κB reporter plasmid pNF-κB-Luc, which has five tandem repeats of an NF-κB binding site (Stratagene, Amsterdam, The Netherlands), according to the manufacturer's protocol. After 24 hours, cells were stimulated as indicated and harvested. Luciferase activity was measured as described (Sallmann et al. (2000) J. Neurosci. 20:8637-8642).
(§2) As indicated, cortical neurons were prepared from a transgenic mouse line (NSE-IκBα-SR) that expressed the NF-κB super-repressor, a mutant of IκBα (IκBα-SR), selectively in neurons. In this transgene, two serine residues, which are phosphorylated by the IκB kinase (IKK), are exchanged to alanines. Neuronal expression is driven by a 1.8 KB fragment of the rat neuron-specific enolase (NSE) promoter. The cell dissociation was performed individually from the brain of each transgenic or wild-type embryo. To control for transfection efficiency, cortical neurons of NSE-IκBα-SR mice and wild-type littermates were cotransfected with 0.1 μg Per well of phRL-TK (Promega, Mannheim, Germany) in addition to pNF-κB-Luc.

cortical neurons [1] = assay: TWEAK-induced cell death in cortical neurons (DAPI and TUNEL staining); format: cell-based
Description: as §1
as §2, with “To control for transfection efficiency, cortical neurons of NSE-IκBα-SR mice and wild-type littermates were cotransfected with 0.1 μg Per well of phRL-TK (Promega, Mannheim, Germany) in addition to pNF-κB-Luc.” left out
Cell death assays. […] TUNEL and DAPI-positive cells were detected under a fluorescent microscope. On each coverslip, five randomly selected fields were counted with a 40× objective (corresponding to ˜800 cells per coverslip). […] Lactate dehydrogenase (LDH) activity in medium was quantified with the Cytotoxicity Detection Kit (LDH; Roche). LDH activity in untreated sister cultures was subtracted, and the LDH activity was expressed as percentage of the maximally releasable LDH pool in the presence of 1 mM glutamate.

cortical neurons [2] = assay: Cell Death Detection ELISA (histone-associated DNA fragments) in cortical neurons; format: cell-based, mouse; conditions: 100 ng/ml, 24 hr
Description: Cell death assays. For terminal deoxynucleotidyl transferase-mediated biotinylated UTP nick end labeling (TUNEL) staining, the cells were fixed in 4% paraformaldehyde at room temperature for 30 minutes. Then, cells were washed twice in PBS for 5 minutes and treated for 2 minutes with 200 μl of permeabilization solution (0.1% Triton X-100 and 0.1% sodium citrate in PBS) at 4° C. After washing, sections were incubated with 50 μl of TUNEL reaction mix (enzyme solution diluted 1:6 in labeling solution; In Situ Cell Detection Kit, Fluorescein; Roche, Mannheim, Germany) for 1 hour at 37° C. in the dark. Then, coverslips were mounted with medium containing 4′,6-diamidino-2-phenylindole dihydrochloride (DAPI; VECTASHIELD®; Vector Laboratories, Burlingame, Calif.). TUNEL and DAPI-positive cells were detected under a fluorescent microscope. On each coverslip, five randomly selected fields were counted with a 40× objective (corresponding to ˜800 cells per coverslip). Cell Death Detection ELISA^Plus (Roche) was performed according to the manufacturer's instructions. Lactate dehydrogenase (LDH) activity in medium was quantified with the Cytotoxicity Detection Kit (LDH; Roche). LDH activity in untreated sister cultures was subtracted, and the LDH activity was expressed as percentage of the maximally releasable LDH pool in the presence of 1 mM glutamate.

[3] = exposure for 24 hours, 100 ng/ml

Row | Molecule | NF-κB activation by rhTWEAK and Fc-hTWEAK (NF-κB; BMS-345541 25 μM) | NF-κB stimulation in neurons of NSE-IκBα-SR mice vs wild-type littermates (NF-κB; rhTWEAK 100 ng/ml) | NF-κB activity (luciferase) (NF-κB; stimulation for 24 hours) | nuclear condensation (DAPI stain) (cortical neurons [1]; [3]) | number of cortical neurons that were TUNEL positive (cortical neurons [1]; [3]) | cell death (TUNEL) in IκBα-SR-expressing neurons vs wild-type (cortical neurons [1]; rhTWEAK 100 ng/ml, 24 hours) | DNA-histone complexes specific to apoptotic DNA fragmentation (ELISA) (cortical neurons [2]) | effect size in DNA-histone ELISA compared with camptothecin (cortical neurons [2]; vs 10 μM camptothecin)
1 | Cc1ccc2nc(NCCN)c3ncc(C)n3c2c1 [BMS-345541, reference compound] | blocked |  |  |  |  |  |  | 
2 | rhTWEAK: recombinant soluble human TWEAK containing amino-acid residues A106-H249 (protein, UniProt O43508 106-249, looked up, fragment) AIAAHYEVHPRPGQDGAQAGVDGTVSGWEEARINSSSPLRYNRQIGEFIVTRAGLYYLYCQVHFDEGKAVYLKLDLLVDGVLALRCLEEFSATAASSLGPQLRLCQVSGLLALRPGSSLRIRTLPWAHLKAAPFLTYFGLFQVH |  | significantly less | stimulated NF-κB activity in a concentration-dependent manner | induced nuclear condensation | increased significantly | protected from cell death | programmed cell death being induced | comparable with the one with 10 μM camptothecin
